These are literature values, as cited in publication PMC5877629.

pKd: −log10 of the molar value.

For this data set, the target named is infliximab. Nature of the data set: sedimentation equilibrium analytical ultracentrifugation.

infliximab: the pKd is 4.68.
